In patent US20080119424A1 (published 2008):
Substitutions are numbered along the chain they refer to.

How the values were obtained:
VP16-RARα LBD = molecular target: T1, VP16-RARα LBD (UniProt P10276 154-462); experiment: mammalian two-hybrid assay (luciferase) in the presence of RA
T1 construct: domain: LBD
T1 sequence: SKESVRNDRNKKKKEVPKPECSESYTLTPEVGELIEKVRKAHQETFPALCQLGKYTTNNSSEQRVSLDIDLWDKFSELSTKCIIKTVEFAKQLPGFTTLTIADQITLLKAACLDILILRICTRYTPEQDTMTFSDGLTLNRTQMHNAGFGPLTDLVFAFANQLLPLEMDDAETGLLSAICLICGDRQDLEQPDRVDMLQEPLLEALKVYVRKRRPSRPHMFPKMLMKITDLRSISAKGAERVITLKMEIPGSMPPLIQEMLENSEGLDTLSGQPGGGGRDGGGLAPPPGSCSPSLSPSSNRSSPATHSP

[1] = molecular target: T2, endogenous RARα (Retinoic Acid Receptor alpha) of mouse cells (mouse (endogenous in mouse embryonic …, UniProt P11416 1-462, limits assumed)); experiment: co-immunoprecipitation, immunoblot for RARα
T2 construct: Endogenous protein detected by immunoblot with anti-RARα (C-20)
T2 sequence (looked up): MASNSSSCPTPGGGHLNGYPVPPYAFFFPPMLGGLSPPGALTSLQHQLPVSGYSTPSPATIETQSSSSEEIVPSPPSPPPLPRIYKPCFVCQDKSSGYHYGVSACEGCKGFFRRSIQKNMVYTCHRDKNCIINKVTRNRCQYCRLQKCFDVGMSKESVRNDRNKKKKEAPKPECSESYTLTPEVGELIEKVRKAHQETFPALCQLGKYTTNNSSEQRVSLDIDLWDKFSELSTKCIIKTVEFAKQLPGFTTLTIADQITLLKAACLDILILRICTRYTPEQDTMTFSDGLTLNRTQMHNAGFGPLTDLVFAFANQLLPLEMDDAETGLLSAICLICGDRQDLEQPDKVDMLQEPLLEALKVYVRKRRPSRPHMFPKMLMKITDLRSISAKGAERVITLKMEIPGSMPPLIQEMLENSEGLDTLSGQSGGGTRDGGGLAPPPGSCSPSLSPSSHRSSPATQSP

B1: Gal4-… (416-509) (other, not shown: large carriers; small tags and cut ends)
chain: NSISISALQSLLQHLIGLSNLTHVLYPVPLESYEDIHGTLHLERLAYLHARLREVVCELGRPSMVWLSANPCPHCGDRTFYDPEPILCPCFMPN
notes: also called box 7 mutant
B1: no binding (VP16-RARα LBD).

B2: TAP-PRAME-LREVV mutant protein (other)
chain: MERRRLRGSIQSRYISMSVWTSPRRLVELAGQSLLKDEALAIAALELLPRELFPPLFMAAFDGRHSQTLKAMVQAWPFTCLPLGVLMKGQHLHLETFKAVLDGLDVLLAQEVRPRRWKLQVLDLRKNSHQDFWTVWSGNRASLYSFPEPEAAQPMTKKRKVDGLSTEAEQPFIPVEVLVDLFLKEGACDELFSYLIEKVKRKKNVLRLCCKKLKIFAMPMQDIKMILKMVQLDSIEDLEVTCTWKLPTLAKFSPYLGQMINLRRLLLSHIHASSYISPEKEEQYIAQFTSQFLSLQCLQALYVDSLFFLRGRLDQLLRHVMNPLETLSITNCRLSEGDVMHLSQSPSVSQLSVLSLSGVMLTDVSPEPLQALLERASATLQDLVFDECGITDDQLLALLPSLSHCSQLTTLSFYGNSISISALQSLLQHLIGLSNLTHVLYPVPLESYEDIHGTLHLERLAYLHARLREVVCELGRPSMVWLSANPCPHCGDRTFYDPEPILCPCFMPN
notes: not shown: TAP tag
B2: no binding [1].

B3: PRAME-ΔLXXLL (other)
chain: B2 chain with L107V, L108V, L262V, L316V, L317V, L369V, L398V, L399V, L426V, L427V
notes: also called PRAME mutant in which all 7 NR boxes were mutated
B3: no binding [1].
